Laboratory results published in patent publication US20060105444A1, “O-fucosyltransferase” (Genentech, Inc., priority 1997, published 2006).

Biological target: T1, purified O-fucosyltransferase (Cricetulus griseus, UniProt P83337)
T1 construct: endogenous in cells; host or cells: CHO cell paste (enzyme); E. coli periplasm (EGF substrates)
Test: Acceptor substrate specificity: fucosyltransferase assay with Factor IX EGF domain mutants
Format: biochemical, CHO cells (Chinese hamster ovary)
Details: for Fucose (cpm): human Factor IX EGF domain or mutant as acceptor substrate, 14C-fucose incorporated; for acceptor substrate for the O-fucosyltransferase (in words): recombinant Factor IX EGF domains, assay counts and LC/MS of fucosylation product
Procedure: A reaction volume of 50 μl contained the following ingredient: 0.1 M imidazole-HCl, pH 7.0; 50 mM MnCl2; 0.1 mM GDP-^14C-Fucose (4000-8000 cpm/nmol), 20 μM recombinant human Factor VII EGF-1 domain and about 0.01-0.1 milliunit of enzyme activity. The mixture was incubated at 37° C. for 10-20 minutes. The reaction was stopped by placing the mixture on ice, then diluting with 950 μl of 0.25 M EDTA, pH 8.0. Separation of incorporated fucose from GDP-fucose, fucose-phosphate and free fucose was carried out by passing the solution through a C18 cartridge (Alltech, Extract Clean, C18, 200 mg). The cartridge was washed with 5 ml of H2O, and the product was then eluted with 3 ml of 80% acetonitrile containing 0.052% TFA. The eluant was mixed with 10 ml Aquasol II (NEN/Du Pont) and counted using a liquid scintillation counter.
As described previously, all the O-fucosylation on EGF domains occur within the putative consensus sequence CXXGGSC (SEQ ID NO: 1) or alternatively CXXGGTC (SEQ ID NO: 21). […] Three mutants were constructed using alanine to replace either of the two or both glycine residues and tested as acceptor substrate for the purified O-fucosyltransferase. Assays using the four recombinant EGF domains all gave positive counts. It appeared that the two glycine residues were not absolutely required for activity.
In order to determine if all the different forms of the mutants served as substrate for the O-fucosyltransferase, reverse-phase HPLC online with electrospray mass spectrometry was used to analyze the product of the fucosylation reaction. Shown in FIG. 8 is the experiment using the mutant ala-ala. Analysis of the other tested mutants gave similar results. […] The enzyme O-fucosyltransferase required its substrate in order to have the proper three dimensional structure in order to function properly.

Row | Fucose (cpm) | Substance | acceptor substrate for the O-fucosyltransferase (in words)
1 | 12062 | EGF (wild type): Recombinant human Factor IX EGF domain, wild type, sequence -CLNGGSC- (SEQ ID NO: 20) (KRYNSGKLEEFVQGNLERECMEEKCSFEEAREVFENTERTTEFHHHHHHGSA) | better substrate than the mutants
2 | 1818 | EGF.AA: Recombinant human Factor IX EGF domain mutant, sequence -CLNAASC- (SEQ ID NO: 17), both glycines replaced by alanine | only one of the four differently folded species served as an acceptor substrate
3 | 4585 | EGF.AG: Recombinant human Factor IX EGF domain mutant, sequence -CLNAGSC- (SEQ ID NO: 18) (KRYNSGKLEEFVQGNLERECMEEKCSFEEAREVFENTERTTEFHHHHHHGSA) | 
